The data set in a line: protein stability index of a GFP-peptide fusion (GPS, HEK-293T) (PSI 1-6); higher = more stable. The settings on record: c terminus: a fixed tail appended.

± gives the standard deviation.

These results are taken from the supplement of paper PMC10567573.
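Further: 24-mer peptide tiles fused after GFP, lentivirally expressed, FACS-sorted into six equal bins by GFP/DsRed ratio, decoded by Illumina sequencing, PSI is the read-weighted mean bin number.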

As to DPESERALQAPHSPSKTDGKELAG [PBXIP1], the protein stability index is 5.48 ± 0.28 (treatment: DMSO) and 5.75 ± 0.25 (treatment: MLN4924 1 uM, 8 h).
In the case of DQDGDQAPEYRGRTELLKDAIGEG [MOG], the protein stability index is 5.33 ± 0.34 (treatment: DMSO) and 5.43 ± 0.21 (treatment: MLN4924 1 uM, 8 h).
On the same counts, the results for DREQVSSYNITVTATDGGSPPLST [PCDHGA10] are 4.54 ± 0.24 and 4.74 ± 0.14.
On the same counts, the results for DRGTRVVFIDFSVYNANINLFCVL [PKD2L1] are 3.11 ± 0.08 and 2.95 ± 0.31.
On to DRSRTVSASSTGDLPKAKTRAADL [SRPK2], for which the protein stability index came out at 4.94 ± 0.11 (treatment: DMSO) and 4.68 ± 0.24 (treatment: MLN4924 1 uM, 8 h).
On the same counts, the results for DSDSEKQQQIHHIKNLYAFNLFCQ [VPS39] are 2.58 ± 0.29 and 2.71 ± 0.35.
Consider DSHILLCLMGLAETPGCATLLPAS [DCAF4], for which the protein stability index reads like this: (treatment: DMSO) 2.67 ± 0.45; (treatment: MLN4924 1 uM, 8 h) 2.58 ± 0.55.
In the case of DTEVITVEKSSPATSLFVELDEEE [BCL2L13], the protein stability index runs as follows: (treatment: DMSO) 5.39 ± 0.065; (treatment: MLN4924 1 uM, 8 h) 5.54 ± 0.25.
On the same counts, the results for DTFAAYTREQLYQAIFHAVDQYLA [MCOLN1] are 2.66 ± 0.44 and 2.42 ± 0.44.
For DTGLFSRSKSGSEEVLCDSCIGNK [TRIM29], in that order: 4.61 ± 0.1 and 4.92 ± 0.23.
For DTWTLTEEHGLQQERPRPEPGRLG [PXN], in that order: 4.93 ± 0.34 and 4.92 ± 0.19.
As for DVKRLGKQNARFLTSMRRLSSIKR [STX11], the protein stability index is, setting by setting: (treatment: DMSO) 2.9 ± 0.35; (treatment: MLN4924 1 uM, 8 h) 2.98 ± 0.42.
For DYVMTTLLFSDKNVNSNLITWNRV [TRIP13], in that order: 2.4 ± 0.75 and 2.36 ± 0.62.
Regarding EADPEMIKRAEDYGPVEVISHWHP [CLPTM1], the protein stability index (treatment: DMSO) is 4.42 ± 0.24 and the protein stability index (treatment: MLN4924 1 uM, 8 h) came to 4.26 ± 0.38.
Regarding EAEKDGVKVPTTLAEYCIKTKVPS [UBE2R2], the protein stability index is, setting by setting: (treatment: DMSO) 5.08 ± 0.19; (treatment: MLN4924 1 uM, 8 h) 5.15 ± 0.2.
For EAMAEKNRRDVEAWFFSKTEELNK [KRT15], in that order: 4.15 ± 0.23 and 4.21 ± 0.25.
For ECVWNGSDSVIMTGSYNNFFRMFD [PPP2R2B], in that order: 2.23 ± 0.34 and 2.27 ± 0.39.
As for EDDGLQSAFTAAHELGHVFNMLHD [ADAMTS4], the protein stability index runs as follows: (treatment: DMSO) 3.77 ± 0.28; (treatment: MLN4924 1 uM, 8 h) 3.9 ± 0.4.
For the sequence EDDVSFLMKHKSRKRRLFCTMEPE [TRIM35], the protein stability index runs as follows: (treatment: DMSO) 3.61 ± 0.28; (treatment: MLN4924 1 uM, 8 h) 3.74 ± 0.19.
For EDFIFSHFFGDKALKKRSGKKDKH [PBXIP1], in that order: 3.82 ± 0.079 and 4.13 ± 0.16.
On the same counts, the results for EDVDTSQVLYEWEQGFSQSFTQEQ [CTNNB1] are 5.03 ± 0.23 and 5.07 ± 0.21.
For EEAISVVMSGKMSVSKAQSIYGIP [LCOR], in that order: 2.69 ± 0.17 and 2.53 ± 0.087.
Consider EEDNVEESEEEGPWEPPVLPILTW [HDAC6], for which the protein stability index (treatment: DMSO) was 4.33 ± 0.29 and the protein stability index (treatment: MLN4924 1 uM, 8 h) was found to be 4.62 ± 0.3.
For EEERRRREEEERERLQKEEEKRRR [ACBD3], in that order: 5.59 ± 0.45 and 5.69 ± 0.12.
On to EEGLEARGEALGLVGAQAPATEEQ [MAGEA3], for which the protein stability index turned out to be 5.57 ± 0.27 (treatment: DMSO) and 5.39 ± 0.34 (treatment: MLN4924 1 uM, 8 h).
For the sequence EEKKAKVAPPAKQAQQKKAPAKKA [BRD3], the protein stability index is, setting by setting: (treatment: DMSO) 5.45 ± 0.29; (treatment: MLN4924 1 uM, 8 h) 5.49 ± 0.17.
On the same counts, the results for EEKQRELARKGSLKNGSMGSPVNQ [FAM219A] are 5.33 ± 0.097 and 5.35 ± 0.16.
For EELSVLEVFEGREDSIFGDPKKLL [MAGEA6], in that order: 4.22 ± 0.35 and 4.32 ± 0.28.
On the same counts, the results for EELTREAVAVDVAVPKRLLEIVGR [HAGHL] are 3.85 ± 0.17 and 3.91 ± 0.38.
With EEWLDILGNGLLRKKTLVPGPPGS [FKBP8], the protein stability index reads like this: (treatment: DMSO) 2.62 ± 0.12; (treatment: MLN4924 1 uM, 8 h) 2.78 ± 0.5.
For EEYCHKHYDRNKDGNKDVYLSLLR [VPS39], in that order: 3.23 ± 0.35 and 3.19 ± 0.27.
On the same counts, the results for EFCRNTLCAPEVISLINTRMLFWA [FAF2] are 2.74 ± 0.45 and 2.73 ± 0.32.
For EFHPHHCNTFVYSSSKGTIRLCDM [PPP2R2B], in that order: 2.31 ± 0.29 and 2.15 ± 0.18.
As to EFNELLSKYQLSEAQLSLIRDIRR [NFE2L1], the protein stability index reads like this: (treatment: DMSO) 2.57 ± 0.22; (treatment: MLN4924 1 uM, 8 h) 2.82 ± 0.38.
For EGCGPPLRRWLRANLAASGGYAIA [TSPAN10], in that order: 1.94 ± 0.21 and 2.52 ± 0.3.
On the same counts, the results for EHFGIVPLEAMYMQCPVIAVNSGG [ALG2] are 2.33 ± 0.11 and 2.59 ± 0.37.
